In the DeepSol protein solubility set:

assay: soluble on expression in E. coli; label from the status in PepcDB or PDB records

| Sequence | soluble on expression in E. coli |
| --- | --- |
| MGSDKIHHHHHHMKIGILTFHDAHNYGAMLQCYALQQFLFKKGYNVEVIDYRPAFYQKQYHRHSLCPWIGKNPVRTMKSIYYNYYLFNKRCAAFSDFHNRHLYMSIPATRTNIPQSYDAYIVGSDQIWNPQLTNGFHDVYFCDFCFPKGKSRFIAYAPSMEISRLSTQEAEYLTRVLNCFDALSVRESSLIPILQPLVSQPIQQVLDPTLLLDATAWNPLIGKCPKNRPYVVLYQVRENPAVRMKAFEIAQSIGGIVVELTARIDCHYSTKYQTASPADFVTYIRYATYVVTTSFHGTAFSLIFNRPFYTFSLGDNFDSRSASLLESVNLTERLVCPDEQFEISLIDFKQANKRLKHLRKQSCDFLRQSLHERQEQ | not soluble |
| MGSDKIHHHHHHMKIIPVFLPYAGCKKRCVFCDQIKATGQAKVPSLDDIARIIEEYSRTSNEYELGFYGGTFTGLSEEKMEEYLRFVKRFPVVKSVRVSTRPDEINERKLKILKKYGVNVIEIGVQSFLDEVLERSKRGYTSEEAEGACKLIKKNGFVLSVHLMVGLPGSDRRGEILSALRTVECGADMVRIHPTLVFEGTELHRMMEEGEYTPLNVEEAVDVCSDLVCIFEGWGTKVIRIGYHVPVELRKYVVAGPIDPSLGDRVRRTTMKKVIESLKPSRIVVPKNYLVWFEEAKVEVGDEFRFDDLSYADALFFTGKEVVERWLNG | not soluble |
| MGSDKIHHHHHHMKILLHMCCGPCAAYPVEQLRGQGAAVTGYWFNHNIHPYQEYMRRRDTVRAYAEKVRLDVIWRDEYRLEEFLAAVAQNPDDRCFYCYFSRLDAVAAAAAAGGFDAFSSTLLYSRYQKHDAIRDCAERAAERHGVAFHYDDYRRGWQEGIRLSKELGLYRHQYCGCIYSEKERYHPREGAK | not soluble |
| MGSDKIHHHHHHMKILVYGINYSPELTGIGKYTGEMVAWMAQEGHEVRVITAPPYYPQWKVGERYSAWRYRREEGEATVWRCPLYVPKQPSTLKRLLHLGSFALSSFFPLMAQRRWKPDRIIGVVPTLFCTPGMRLLATLSGARTVLHIQDYEVDAMLGLGMAGKGKRGSVARLATAFERSALRNVDNVSTISRSMMNKAREKGVAAEKILFFPNWSEVARFQDVNDADVTALRQQLGLPEGKKIVLYSGNIGEKQGLEKVIDAAERLRDRPLIFAIVGQGGGKARLENMARERGLANIKFLPLQPYDALPALLKMGDCHLVVQKRGAADAVLPSKLTNILAVGGNAVITAEPHTELGQLCARYPGIAVCVEPESTDALVNGISQALAMPKNNTTAREYAERTLNKENVLRQFIADIRG | not soluble |
| MGSDKIHHHHHHMKILYISNFNLPDFQNDMIFHGLRSVFGNDCIDSNEAWYMYEDFRNYWNVRVPENGMSYGRGFTLYGKLPKIDIDRKNIYEKIKDKYFDKIVYGSITRNNMFLDEVISIYEKNNIIMIDGEDNTEINQNFFGKGIYFKRELIYEPTSYLKPIGFCIPNETIVNNISIKEKDYGHVIPGDPETYIYTDEVSYFEDYRKSYFGVTMKKGGWDCLRHYEILMNGCIPYFLNLEQCPKYTMTHFPKNIILDVINKINTESNILNFYNEYVDILLEYTRNKLTTRKVIESIL | not soluble |
| MGSDKIHHHHHHMKIQSLFFTLYGDYVKDSGGTISSKSLIVIFKEFGFSEGAIRAGLHRMKKAGLIVGIKGENRKVSYKLSEKGMLRLLEGTRRVYEKVRRRWDNKWRIVVYNIPENNRELRDKLRRELKWLGFGMLAQSTWISPNPIEDTLKNFINDHYGSSNGIQVDIFVANYLGEPKGLVEKCWNLSEVEQAYRAFLEKWTGVLEKVSSLKSNEAFVTRILLVHEYRKFLNIDPDLPEDLLPPNWIGYTAYDLFMKLREELTPKANEFFYKVYEP | not soluble |
| MGSDKIHHHHHHMKISLGPIHYYWSKENIEQFYRRAEHWPVDIVYLGETVCAKRRALRSADWLDIAARLTDAGKEVVLSTLALLEANSDLLQLERICANTHYLVEANDMSAVHLLAGRGPFVIGPHINCYNAETLSLLADLGGRRWIPPVELPATTIAMLQNTRPETMETEAFAYGYLPLSFSARCFTARADNVGKDACELRCIKDPEGRALFTQEQERLFTINGIQLQSGIPCNLLNETVAMSEMGMDIVRISPQLTATESVIRAFHAVLNGEISPPVEYGSPACNGYWYGKPGMQFSPVQGH | not soluble |
| MGSDKIHHHHHHMKISLGPLLYCWEKQQVIDFYQQVANSQIPLVYLGEAVCSRRRELKWGDYLELAKMLKSAGKDVVLSTLALIEAPSEYTELKRQVDNGEFMIEANDMAAVYLAKEHKQPFVCGASINNYNRASLDILQRLGMQRFVMPVELSKTWLSQVVDKKPSFEVEVLGHGYLPLAHSARCFTARHSQLAKDSCETVCRQYSKGLLAQTQEAQPLLRLNGIQTQSASCVDLRSEISAMVKIGVDVFRVSPSSLACIAKADALVEALNSGAMDAQYPLSDEHCNGYWFGEAGLKSLS | not soluble |
| MGSDKIHHHHHHMKITQIRNATLQLEFGGKTFLIDPMLAPKATYPGFPGTANDHLRNPLVELPLPMATILDVDAVIVTHTHLDHWDDAAIKAIPKTMPIFSQNAQDADLIRRAGFISVRVLGEQMEYDGITLIKTAGQHGSDETYANPQLAERLGEVCGIVFQHANEKSFYLAGDTVWNQHVIDVLTDYSPDVVALNIGNAFIPSFGSIIMGKEDVRRVHQLVPNAAIVATHMEAVNHCLLSRAELRDYLHEEKLQSIAHVPNDGESVQF | not soluble |
| MGSDKIHHHHHHMKIVKISPRGYCYGVVDAMVIARNAALDTSLPRPIYILGMIVHNKHVTDAFEEDGIITLDGPSRLDILDKIDSGTVIFTAHGVSPEVKQRAKEKGLTTIDATCPDVTKTHDLIEAKKAEGYHVIYIGKKNHPEPEGAVGIAPDIVHLIERADDLKTLEIPTDKILVTNQTTMSQWDVQHLMEDIQKKFPTAEFHKEICLATQVRQEAVAKQADVADLTIVVGDPKSNNSNRLAQVSQEIAGTKAYRVADVSEIKLEWLQGVENVAVTAGASTPTPITKEVIAFLEQYDPMNPATWERVRKVPLQKILPRVKVKKEQ | not soluble |
| MGSDKIHHHHHHMKKAHVIVVGNEKGGTGKSTISMHLIVSLLDKGLSVGSIDIDARQATLSRYIGNRAARQDRAELNLPIPEHIPIPPSGDAQADCARLDEVFKDFAARHDVVVIDTPGSDHPMSRLGHSFADTLVTPLNDSLVDLDVLALVEPGTMKIRRPSHYAEMVWETKKTRAMRGEKAVVDWIVLRNRLSNLDARNKRDMEKLLAELSKRVGFRVIPGLGERVIYRSMFLEGLTLVDLKKKPLGFDFNMSHVAARQELRTLVDAIGLGLPATA | not soluble |
| MGSDKIHHHHHHMKKIPCVMMRGGTSRGAFLLAEHLPEDQTQRDKILMAIMGSGNDLEIDGIGGGNPLTSKVAIISRSSDPRADVDYLFAQVIVHEQRVDTTPNCGNMLSGVGAFAIENGLIAATSPVTRVRIRNVNTGTFIEADVQTPNGVVEYEGSARIDGVPGTAAPVALTFLNAAGTKTGKVFPTDNQIDYFDDVPVTCIDMAMPVVIIPAEYLGKTGYELPAELDADKALLARIESIRLQAGKAMGLGDVSNMVIPKPVLISPAQKGGAINVRYFMPHSCHRALAITGAIAISSSCALEGTVTRQIVPSVGYGNINIEHPSGALDVHLSNEGQDATTLRASVIRTTRKIFSGEVYLP | not soluble |
| MGSDKIHHHHHHMKKKLALVVVHEIYGVNDHMHHVTDHFTSSHIDVFCPNLLQSQPAFHYSDEEKAYHFFMNHIGFEDGKKQIETFITHLSSRYTHIGLIGFSVGATISWLCSNNPKIDFIIGCYGSRIRDYIHMKPTCATLLIFPEKEASFSVPSFIQSLQQQKNPLLEIYQLHGEHGFLNPYTEKYNGHSTNQAYNLIDSFLVKNTLIKEM | not soluble |
| MGSDKIHHHHHHMKKLRKIIEINEELCNGCGQCISACAESALALVNGKARVVSDNLCDGLGTCIGECPTGALKIVEREAEEFDAQAVEIARSCPSTRMVMTFTAGTPSSEARPSALSHWPVKIRLIPENAPFLKGADLLVVADCVPVAFSDLHGRFLPGKVVMAGCPKFDEAQPYIEKFAGIFHNAGIRRVTVLTMEVPCCSGLPILVRKGMELAGVRVPMEVAVISTRGEILDKTA | not soluble |
| MGSDKIHHHHHHMKKLSHQFDKPKRSVASPEALEALRNNNAVRWYVLSLPDCHRGGVRGLQREQDRRIQAGEPSFGFFAPSYQEVRRIDGKFVNTQRPLLFNYVFVRASERDVFQLMQRFPVLSFLPRVRERKREYFPYLSDAAMENLQWVARSYSNTLPVYIPQPDGLRKGDRIRITEGRFKGVEATVVIQPGAGRKDVMVCVENWMWVPLLRVMPGEYEVIALNDEDKHVYTRLDNDCMLNGLHSALQRYHSAEGVNEEDRSLAARALKEYGNLRMDTDVMRCKLYAILLPAYTILGMEEEAAKLVGVMQTMLPLVKAEQSRALAVVTLYGCTDSSIYYHLAHEAVDPWKKEEKPKKSKQQLINRLADYDRWLRH | not soluble |
| MGSDKIHHHHHHMKKLVENLLSWCKKSMKMRRCVGKSTAPVTGQSVGQTGNAEGVLPSTATETVDEIVLPAAVETAGMVETIDEKAAFGKSGRKKPENMLDALQRFLTIRYDFRYNLLTEQTEYRGKEMPDEEYAMVAQRDLNTFCLEARTGGINCWDKDVSRLLHSRKVENYHPFLHYMSHLPQWDGVDRVTPLAVRISRKPMWVKGFHRWMLGVAAQWLGQAQDCANAVAPMLVSREQGKRKSSFCKILMPKELTPYYIDKFDLTSESGCEQKLSLFGLINMDEFDKYRAGQMPALKNLMQTTTLTFRRAHRPAFSHLPRIASFIGTSNMTDLLTDPTGSRRFLCAEVDGKIDCTPPDHAQLFAQLKAELAGGERYWFSEEEEKEIQHSNRNFYKMPAEQELFLRCFRMPQEGELSKPYTTTDLFNYLQKHYPAAMRGVTPNRLGRMMVALGIQRVHTEYGNVYRLVKLKDSSAA | not soluble |
| MGSDKIHHHHHHMKKLVVRADDIGYSEGVTLGIISSYKNGIVTSAGIMVNMPFSRQAIEMVKNDDVCFGLHVNLVIGEPCCKEHIKIKNLLDEGGKFVSSKIRRTQLLTGKEVFNYEEVYEEVCAQIETYKLYMSKLPEYIDIHGIEEDVSISAMCDAAKEYGIPSCPYYLDSCISMPSKYPQNDFYKLNKSFVKLFEEKYINLDKDITLMVTHPGFIDYSLIKSSSLIQERVYEHAMLCDKEVKMWLKRNNIELVDFKDIFKSNNYI | not soluble |
| MGSDKIHHHHHHMKKNQKISVEQLEVGTFIRLPISWKDHPFLFSSFKIKDAAQIELIKGLGLKDVFFDPEKSDVEPVTSENASTQKPDEQALNALKEQMISQKSAKIDEQQKLKRDLKKTEQQFNRSVSMMRSMVSKISSRPLNAVSEAKDLISNMTTMLLNSDNLALHLMGDAKNDEHIYHHSLNVAMLCMLMAKELGWSREEVETIGIGGLFHDIGKLKVPSNILNKRVPLTTPEENFIKQHPLMSINFLKLADSFPDEAKPLIANHHEYLDGSGYPQGLKADKLDKLSQLIAVVNEYDNLCNGTNQAKGKPPSIALGLLYKNYKNKLNVEYISKLIKMLGIYPPGSIIELSSGQFAMVMSVNLQKLLCPNIVVYDQLVPKDLAPIISLQDEGLSIVRSLPAAALPEKIHKYLNPREQISLGIGQN | not soluble |
| MGSDKIHHHHHHMKKSERLNQELFFLRTHPQFNLNQLMKTFGISKSTALRDIEALENLGVPLYVENGRYGGYRVLNKPLLPPIYFNENEVLAIFFSLQLLKLVAESPFGHSYQQIKQKLLHSLDEPTQFKISQMSKVVYYEGIEQVEAPGNLEQLFHCILAQQVIQFNYTRYEATTKKILPTRLTILEGYWYCSGYDVTKKAWRTYRCDFMEAIQQLNQTLDFTTEELKESYRHQQTTARTIPFKAIITEKGKEFFYKHRFDNIQLEETPTQCFLVGQIHPTETQFLANYFMGFGEEVTILDPVQVKQAYVESIMRIQKKYQE | not soluble |
